Data: patent publication US20210163538A1 (published 2021)
One block for each binder: values may come before it. *1 amine or outer side, *2 acyl side, *3 side chain or, on linkers, in order; H or OH if unused. Bridges are numbered along the chain shown (N, C = ends). [ ]: non-standard residue; d: D form. AlexaFluor 647 = AlexaFluor 647 dye coupled as NHS ester to the Lys amine; Tyr(Me) = O-methyltyrosine, COc1ccc(C[C@H](N[*:1])C(=O)[*:2])cc1; Trp(5-F) = N[C@@H](Cc1c[nH]c2ccc(F)cc12)C(=O)O; mXylylene = c1cc(C[*:1])cc(C[*:2])c1; αMeP = C[C@@]1(C(=O)O)CCCN1; Mpa = O=C(O)CCS

What was measured:
biotinylated PCSK9 [1] = target: T1, biotinylated PCSK9 (UniProt Q8NBP7 31-692, limits assumed, biotinylated (site not stated)); assay: method not stated; KD of the labelled probe of the Alexa FRET Standard assay
T1 construct: also called europium-labeled PCSK9

biotinylated PCSK9 [2] = target: T1, biotinylated PCSK9; assay: method not stated; KD of the labelled probe of the Alexa FRET Plus assay

T1 sequence (Q8NBP7 31-692 limits assumed): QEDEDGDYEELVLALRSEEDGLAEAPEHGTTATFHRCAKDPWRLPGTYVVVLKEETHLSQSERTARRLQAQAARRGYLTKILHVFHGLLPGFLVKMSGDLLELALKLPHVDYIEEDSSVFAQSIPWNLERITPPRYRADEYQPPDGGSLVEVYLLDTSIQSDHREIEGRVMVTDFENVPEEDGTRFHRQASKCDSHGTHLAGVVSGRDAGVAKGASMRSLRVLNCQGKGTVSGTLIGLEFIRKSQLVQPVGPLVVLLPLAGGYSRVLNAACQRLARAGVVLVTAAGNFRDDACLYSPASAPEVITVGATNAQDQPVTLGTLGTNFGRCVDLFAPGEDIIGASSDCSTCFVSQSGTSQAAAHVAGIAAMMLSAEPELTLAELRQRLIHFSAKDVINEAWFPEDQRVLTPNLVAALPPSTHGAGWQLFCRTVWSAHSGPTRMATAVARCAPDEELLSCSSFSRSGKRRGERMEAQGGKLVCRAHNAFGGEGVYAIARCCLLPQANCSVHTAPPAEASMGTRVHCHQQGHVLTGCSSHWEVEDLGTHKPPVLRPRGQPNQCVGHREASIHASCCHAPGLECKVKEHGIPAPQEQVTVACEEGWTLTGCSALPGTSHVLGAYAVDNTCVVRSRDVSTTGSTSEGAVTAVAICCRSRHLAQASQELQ

Kd (biotinylated PCSK9 [1]): 83 nM
B1: Reagent A (peptide)
peptide: [Mpa]K(AlexaFluor 647)G[Trp(5-F)][Trp(5-F)]DHY[αMeP]C-NH2
modifications: linker N-10 via mXylylene
notes: also called AlexaFluor647 (AF) tagged cyclic peptide; AF cyclic peptide

Kd (biotinylated PCSK9 [2]): 35 nM
B2: Reagent B (peptide)
peptide: [Mpa]K(AlexaFluor 647)[dA][Trp(5-F)][Trp(5-F)]DH[Tyr(Me)][αMeP]C-NH2
modifications: linker N-10 via mXylylene
notes: as for B1
